In patent US20250171558A1 one finds Kd data, which are given here for nine substances.

Test [1] deals with human FcRn/B2 microglobulin. Description: SPR; pH 6.0.
For the next test, the target named is FcγRIIIa F. Description: SPR; human FcγRIIIa F157.
The target in the next test is FcγRIV. Description: SPR; mouse FcγR.
The target of test [2] is FcγRIIb. The test can be described thus: SPR; mouse FcγR.
The target of test [3] is FcγRIII. The test can be described thus: SPR; mouse FcγR.
Test [4] addresses FcγRI. Description: SPR; mouse FcγR.
Another test deals with FcγRIIIa V. The test can be described thus: SPR; human FcγRIIIa V157.
For test [5], the target named is FcγRIIb. Description: SPR; rhesus FcγR.
In test [6] the target is FcγRIII. Description: SPR; rhesus FcγR.
Test [7] concerns the target FcγRI. Description: SPR; rhesus FcγR.
The target in a further test is FcγRIIa. Description: SPR; rhesus FcγR.
For another test, the target named is FcγRIIa R. The test can be described thus: SPR; human FcγRIIa R131.
The target of the next test is FcγRIIa H. Description: SPR; human FcγRIIa H131.

SDIE LS- showed a Kd in [1] of 12.7 nM. In other words, the double-digit nanomolar range.

Regarding GAALIE LS+, the Kd in test [1] was found to be 1.4 nM.

Regarding GAALIE, the Kd amounted to 164 nM with FcγRIIIa F; 207 nM with FcγRIV; 1620 nM with FcγRIIb [2]; 2380 nM with FcγRIII [3]; 440 nM with FcγRI [4]; 131 nM with FcγRIIIa V. For the same substance, the Kd in the test with FcγRIIb [5] was determined as 6920 nM; in the test with FcγRIII [6] it was 91.2 nM; in the test with FcγRI [7], 0.457 nM; in the test with FcγRIIa, 9100 nM; with FcγRIIa R it was 819 nM; in the test with FcγRIIa H it was 622 nM.

With GAALIE LS-, the Kd in test [1] stood at 19.9 nM.

In the case of SDIE, the Kd came out at 47.5 nM with FcγRIIIa F; 8.56 nM with FcγRIV; 398 nM with FcγRIIb [2]; 1080 nM in the test with FcγRIII [3]; 14.1 nM with FcγRI [4]; 29.6 nM with FcγRIIIa V. Besides, the Kd was 540 nM with FcγRIIb [5]; 30 nM with FcγRIII [6]; 0.441 nM with FcγRI [7]; 685 nM with FcγRIIa; 354 nM with FcγRIIa R; 769 nM in the test with FcγRIIa H.

Regarding GAIE LS+, in [1], the Kd worked out at 1.99 nM.

GAIE LS- displayed a Kd in test [1] of 20.1 nM.

Take GAIE: the Kd amounted to 162 nM in the test with FcγRIIIa F; 258 nM with FcγRIV; 1150 nM in the test with FcγRIIb [2]; 2520 nM in the test with FcγRIII [3]; 212 nM in the test with FcγRI [4]; 130 nM with FcγRIIIa V. Besides, the Kd with FcγRIIb [5] is 1100 nM; with FcγRIII [6], 87.6 nM; with FcγRI [7], 0.51 nM; with FcγRIIa, 1400 nM; with FcγRIIa R it was 204 nM; with FcγRIIa H, 249 nM.

Consider SDIE LS+, for which, in test [1], the Kd was 1.19 nM.
